The target of this assay is Ssl1 (S. sviceus laccase 1), small two-domain laccase from Streptomyces sviceus, without the twin-arginine signal peptide (Streptomyces sviceus). The experiment in a line: SEC-MALS; Superdex 200 10/300 GL, 0.5 mL/min, 50 mM potassium phosphate pH 7.5; 100 µL of Ssl1 at 7.5 mg/mL injected; multi-angle static light scattering with refractometer.

Experimental findings from article PMC3527528 are described below.

Usually stoichiometry N stands for a count of units in the complex or per binding partner.

In the case of “Ssl1 (S. sviceus laccase 1), small two-domain laccase from Streptomyces sviceus, without the twin-arginine signal peptide (enzyme)”, the stoichiometry N turned out to be 3.
